# Results taken from publication doi:10.1101/2025.06.13.659557.
# Where two headings read alike, the source gives them in different places.
# Columns and labels:
# mCherry-RalB = mCherry-RalB (UniProt P11234); assay: co-IP
# GFP-RalB [1] = biological target: GFP-RalB (UniProt P11234); assay: pull-down
# GFP-RalA [2] = biological target: GFP-RalA (UniProt P11233); assay: pull-down
# GFP-RalB [3] = biological target: GFP-RalB (UniProt P11234); assay: pull-down; remark: listed apart in the source
# GFP-RalA [4] = biological target: GFP-RalA (UniProt P11233); assay: pull-down; remark: listed apart in the source
# [5] = biological target: angiomotin (GFP-fused bait) (UniProt Q4VCS5); assay: pull-down
# UniProt Q4VCS5, sequence (Q4VCS5 whole entry, the tested form may be a part): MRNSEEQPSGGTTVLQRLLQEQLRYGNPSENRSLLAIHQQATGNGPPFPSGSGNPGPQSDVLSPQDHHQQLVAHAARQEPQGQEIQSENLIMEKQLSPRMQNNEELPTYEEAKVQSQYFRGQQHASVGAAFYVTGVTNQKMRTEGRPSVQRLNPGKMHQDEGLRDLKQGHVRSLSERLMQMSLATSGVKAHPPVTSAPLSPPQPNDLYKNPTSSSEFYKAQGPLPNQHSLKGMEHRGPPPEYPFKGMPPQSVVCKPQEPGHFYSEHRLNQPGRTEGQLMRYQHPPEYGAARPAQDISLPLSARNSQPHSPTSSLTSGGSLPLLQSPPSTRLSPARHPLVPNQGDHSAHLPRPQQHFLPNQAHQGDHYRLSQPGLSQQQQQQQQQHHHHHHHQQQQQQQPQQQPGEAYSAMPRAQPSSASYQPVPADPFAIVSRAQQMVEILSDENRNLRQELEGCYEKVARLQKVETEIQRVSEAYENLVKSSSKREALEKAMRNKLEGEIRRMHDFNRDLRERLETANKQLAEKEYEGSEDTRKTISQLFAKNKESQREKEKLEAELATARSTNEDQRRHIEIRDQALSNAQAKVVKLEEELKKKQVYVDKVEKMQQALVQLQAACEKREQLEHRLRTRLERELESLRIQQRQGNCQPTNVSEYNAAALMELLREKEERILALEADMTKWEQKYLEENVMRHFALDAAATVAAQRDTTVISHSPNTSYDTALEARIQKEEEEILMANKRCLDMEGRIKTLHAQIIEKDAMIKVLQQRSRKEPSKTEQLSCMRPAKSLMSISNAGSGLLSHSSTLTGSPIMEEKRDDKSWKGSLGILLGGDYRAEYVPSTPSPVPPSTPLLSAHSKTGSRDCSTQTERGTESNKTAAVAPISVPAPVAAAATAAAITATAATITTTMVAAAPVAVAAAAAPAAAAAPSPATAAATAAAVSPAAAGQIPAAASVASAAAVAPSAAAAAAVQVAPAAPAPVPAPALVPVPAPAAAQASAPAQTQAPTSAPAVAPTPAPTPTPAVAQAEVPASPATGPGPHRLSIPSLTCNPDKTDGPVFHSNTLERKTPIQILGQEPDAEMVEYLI
# UniProt P11233, sequence (P11233 whole entry, the tested form may be a part): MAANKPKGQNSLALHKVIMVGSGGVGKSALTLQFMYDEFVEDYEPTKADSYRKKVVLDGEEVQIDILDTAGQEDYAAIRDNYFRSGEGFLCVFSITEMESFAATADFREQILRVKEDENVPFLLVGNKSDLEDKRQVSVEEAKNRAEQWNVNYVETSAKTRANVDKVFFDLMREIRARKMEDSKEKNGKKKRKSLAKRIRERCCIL
Substance,percent reduction of RalB binding to Exo84 (mCherry-RalB) [%],percent reduction of RalB binding to Sec5 (mCherry-RalB) [%],fold binding over the GFP control (GFP-RalB [1]) [fold],fold binding over the GFP control (GFP-RalA [2]) [fold],fold binding over the GFP control (GFP-RalB [3]) [fold],fold binding over the GFP control (GFP-RalA [4]) [fold],fold binding over the GFP control [5] [fold]
Merlin-GFP (wild type) (from UniProt P35240 1-595) (natural protein),50,50,,,,,
Merlin-NanoLuc (from UniProt P35240 1-595) (natural protein),,,> 50,> 50,7,7,> 65
